Measurements from patent US20240182536A1 (MURAL ONCOLOGY, published 2024).
Like-named read-outs stand apart in the source and are kept apart here.

T1: IL-18 receptors on HEK-Blue IL-18 reporter cells (InvivoGen) (UniProt Q13478 19-541; O95256 20-599)
T1 sequence (looked up) 1: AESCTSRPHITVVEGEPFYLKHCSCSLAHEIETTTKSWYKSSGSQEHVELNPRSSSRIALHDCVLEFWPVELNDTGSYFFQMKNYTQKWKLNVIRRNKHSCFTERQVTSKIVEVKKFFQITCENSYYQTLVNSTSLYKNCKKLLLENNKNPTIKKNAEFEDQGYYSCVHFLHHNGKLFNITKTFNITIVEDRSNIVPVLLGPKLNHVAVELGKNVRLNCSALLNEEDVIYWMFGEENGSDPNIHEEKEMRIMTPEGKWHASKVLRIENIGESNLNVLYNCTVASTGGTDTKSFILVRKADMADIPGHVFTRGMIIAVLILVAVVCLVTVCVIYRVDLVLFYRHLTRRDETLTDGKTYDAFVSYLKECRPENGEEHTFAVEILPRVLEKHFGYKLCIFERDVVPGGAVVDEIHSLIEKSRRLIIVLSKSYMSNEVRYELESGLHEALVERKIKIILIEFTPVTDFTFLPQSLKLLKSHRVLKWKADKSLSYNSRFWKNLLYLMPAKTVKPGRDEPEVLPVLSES
T1 sequence (looked up) 2: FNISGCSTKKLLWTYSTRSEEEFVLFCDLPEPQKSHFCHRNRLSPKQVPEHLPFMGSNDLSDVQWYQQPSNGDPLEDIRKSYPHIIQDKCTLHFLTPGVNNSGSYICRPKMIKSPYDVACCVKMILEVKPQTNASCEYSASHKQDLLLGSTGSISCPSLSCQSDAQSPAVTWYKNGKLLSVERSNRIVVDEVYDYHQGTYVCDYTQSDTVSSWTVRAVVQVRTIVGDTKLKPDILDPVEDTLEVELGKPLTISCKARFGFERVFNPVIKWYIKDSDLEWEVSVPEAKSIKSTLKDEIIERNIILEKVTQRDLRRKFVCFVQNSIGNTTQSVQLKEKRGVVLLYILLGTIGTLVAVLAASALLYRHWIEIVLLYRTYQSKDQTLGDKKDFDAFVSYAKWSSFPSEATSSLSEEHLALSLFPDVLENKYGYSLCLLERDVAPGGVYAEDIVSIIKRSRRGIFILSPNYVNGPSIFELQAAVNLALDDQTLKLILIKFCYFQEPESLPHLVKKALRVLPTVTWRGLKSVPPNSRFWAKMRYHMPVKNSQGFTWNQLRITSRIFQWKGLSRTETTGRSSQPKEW

T2: human IL-18 binding protein (IL-18BP) (human, UniProt O95998 31-194)
T2 sequence (looked up): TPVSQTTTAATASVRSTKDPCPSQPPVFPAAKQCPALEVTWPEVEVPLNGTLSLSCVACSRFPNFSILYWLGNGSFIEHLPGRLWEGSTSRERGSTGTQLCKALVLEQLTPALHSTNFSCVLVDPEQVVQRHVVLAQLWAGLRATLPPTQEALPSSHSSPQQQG

T3: human IL-18 binding protein (human, UniProt O95998 31-194)
T3 sequence (looked up): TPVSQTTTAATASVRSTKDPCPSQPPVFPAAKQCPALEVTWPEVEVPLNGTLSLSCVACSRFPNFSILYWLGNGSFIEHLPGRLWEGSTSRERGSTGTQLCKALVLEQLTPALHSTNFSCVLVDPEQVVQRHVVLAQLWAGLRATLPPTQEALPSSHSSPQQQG

T4: IL-18 receptors on HEK-Blue IL-18 reporter cells (UniProt Q13478 19-541; O95256 20-599, limits assumed)
T4 sequence (looked up) 1: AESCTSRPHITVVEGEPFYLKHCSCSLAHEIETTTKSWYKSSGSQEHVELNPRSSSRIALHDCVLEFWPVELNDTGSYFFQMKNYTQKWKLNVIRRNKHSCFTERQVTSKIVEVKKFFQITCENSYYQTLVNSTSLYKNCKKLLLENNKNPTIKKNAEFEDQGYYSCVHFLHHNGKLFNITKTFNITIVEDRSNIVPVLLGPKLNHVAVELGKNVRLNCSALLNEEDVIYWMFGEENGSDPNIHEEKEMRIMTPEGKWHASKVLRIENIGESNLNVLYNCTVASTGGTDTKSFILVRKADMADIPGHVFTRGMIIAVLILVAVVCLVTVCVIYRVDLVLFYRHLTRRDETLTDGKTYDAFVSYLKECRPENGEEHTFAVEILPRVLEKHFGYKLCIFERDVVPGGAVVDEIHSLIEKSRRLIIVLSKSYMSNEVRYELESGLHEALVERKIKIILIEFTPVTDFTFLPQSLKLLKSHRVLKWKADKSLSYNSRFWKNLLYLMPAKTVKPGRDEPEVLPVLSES
T4 sequence (looked up) 2: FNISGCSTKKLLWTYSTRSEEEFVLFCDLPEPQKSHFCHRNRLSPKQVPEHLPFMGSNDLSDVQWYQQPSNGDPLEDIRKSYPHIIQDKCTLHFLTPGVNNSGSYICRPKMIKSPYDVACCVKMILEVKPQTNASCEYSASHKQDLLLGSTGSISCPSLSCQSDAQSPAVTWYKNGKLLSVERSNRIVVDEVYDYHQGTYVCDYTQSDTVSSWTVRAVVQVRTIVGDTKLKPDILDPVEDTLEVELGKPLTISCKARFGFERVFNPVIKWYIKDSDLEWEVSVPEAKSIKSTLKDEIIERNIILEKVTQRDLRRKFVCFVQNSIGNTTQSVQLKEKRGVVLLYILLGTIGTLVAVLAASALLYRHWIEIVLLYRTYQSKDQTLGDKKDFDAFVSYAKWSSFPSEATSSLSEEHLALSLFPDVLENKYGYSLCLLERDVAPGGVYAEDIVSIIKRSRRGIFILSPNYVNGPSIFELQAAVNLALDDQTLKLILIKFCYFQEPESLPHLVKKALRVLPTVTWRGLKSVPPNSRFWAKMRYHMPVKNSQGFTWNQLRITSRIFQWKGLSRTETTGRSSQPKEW

T5: IL-18 receptor alpha (UniProt Q13478 19-329, limits assumed)
T5 construct: also called IL-18 Rα; IL-18Rα
T5 sequence (looked up): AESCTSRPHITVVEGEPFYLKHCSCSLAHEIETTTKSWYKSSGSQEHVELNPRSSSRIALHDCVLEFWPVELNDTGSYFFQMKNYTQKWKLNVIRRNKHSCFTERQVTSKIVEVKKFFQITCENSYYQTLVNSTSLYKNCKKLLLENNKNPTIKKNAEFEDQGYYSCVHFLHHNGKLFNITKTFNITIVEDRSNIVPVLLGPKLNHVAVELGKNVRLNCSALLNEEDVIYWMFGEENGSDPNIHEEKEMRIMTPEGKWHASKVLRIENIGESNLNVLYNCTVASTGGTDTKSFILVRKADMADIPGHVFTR

T6: IL-18 receptor (IL-18Rα and IL-18Rβ) (UniProt Q13478 19-541; O95256 20-599, limits assumed)
T6 sequence (looked up) 1: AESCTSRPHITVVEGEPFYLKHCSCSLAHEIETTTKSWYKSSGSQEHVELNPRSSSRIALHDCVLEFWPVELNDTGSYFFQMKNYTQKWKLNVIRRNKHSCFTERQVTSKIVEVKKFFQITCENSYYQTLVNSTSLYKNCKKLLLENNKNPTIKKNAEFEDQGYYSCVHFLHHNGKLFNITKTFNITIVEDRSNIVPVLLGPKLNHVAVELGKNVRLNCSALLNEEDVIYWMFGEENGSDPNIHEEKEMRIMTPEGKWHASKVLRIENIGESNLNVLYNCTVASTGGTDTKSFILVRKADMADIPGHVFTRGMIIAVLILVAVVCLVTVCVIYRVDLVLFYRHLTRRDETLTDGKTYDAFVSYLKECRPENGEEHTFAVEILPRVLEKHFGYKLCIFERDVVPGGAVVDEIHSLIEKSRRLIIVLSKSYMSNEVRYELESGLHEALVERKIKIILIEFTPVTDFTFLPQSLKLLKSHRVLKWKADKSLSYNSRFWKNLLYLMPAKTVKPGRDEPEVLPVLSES
T6 sequence (looked up) 2: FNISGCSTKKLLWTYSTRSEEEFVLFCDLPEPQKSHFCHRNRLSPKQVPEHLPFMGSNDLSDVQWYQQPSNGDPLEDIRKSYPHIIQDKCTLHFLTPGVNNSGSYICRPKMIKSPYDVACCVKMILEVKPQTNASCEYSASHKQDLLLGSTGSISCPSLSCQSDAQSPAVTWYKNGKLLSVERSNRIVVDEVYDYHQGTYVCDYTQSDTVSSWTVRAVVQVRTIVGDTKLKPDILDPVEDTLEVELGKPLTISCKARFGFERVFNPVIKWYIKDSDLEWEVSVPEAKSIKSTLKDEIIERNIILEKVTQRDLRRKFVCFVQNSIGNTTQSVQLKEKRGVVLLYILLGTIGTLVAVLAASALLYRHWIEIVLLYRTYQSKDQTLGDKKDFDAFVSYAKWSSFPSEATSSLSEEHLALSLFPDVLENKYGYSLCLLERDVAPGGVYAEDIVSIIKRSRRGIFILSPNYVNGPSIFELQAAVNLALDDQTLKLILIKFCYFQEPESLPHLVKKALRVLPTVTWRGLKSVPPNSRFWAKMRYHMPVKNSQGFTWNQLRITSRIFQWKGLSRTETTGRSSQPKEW

B1: IL-18 variant G3A, K53S (ligand)
chain: YFAKLESKLSVIRNLNDQVLFIDQGNRPLFEDMTDSDMRDNAPRTIFIISMYSDSQPRGMAVTISVKSEKISTLSSENKIISFKEMNPPDNIKDTKSDIIFFQRSVPGHDNKMQFESSSYEGYFLASEKERDLFKLILKKEDELGDRSIMFTVQNED
B2: human IL-18 variant G3T/K53S/M60K (ligand)
chain: YFTKLESKLSVIRNLNDQVLFIDQGNRPLFEDMTDSDMRDNAPRTIFIISMYSDSQPRGKAVTISVKSEKISTLSSENKIISFKEMNPPDNIKDTKSDIIFFQRSVPGHDNKMQFESSSYEGYFLASEKERDLFKLILKKEDELGDRSIMFTVQNED
B3: human IL-18 variant G3T/K53A/M60K (ligand)
chain: YFTKLESKLSVIRNLNDQVLFIDQGNRPLFEDMTDSDMRDNAPRTIFIISMYADSQPRGKAVTISVKSEKISTLSSENKIISFKEMNPPDNIKDTKSDIIFFQRSVPGHDNKMQFESSSYEGYFLASEKERDLFKLILKKEDELGDRSIMFTVQNED
B4: human IL-18 variant G3V/E6K/K53A/M60K (ligand)
chain: YFVKLKSKLSVIRNLNDQVLFIDQGNRPLFEDMTDSDMRDNAPRTIFIISMYADSQPRGKAVTISVKSEKISTLSSENKIISFKEMNPPDNIKDTKSDIIFFQRSVPGHDNKMQFESSSYEGYFLASEKERDLFKLILKKEDELGDRSIMFTVQNED
B5: IL-18 variant G3S, K53S (ligand)
chain: YFSKLESKLSVIRNLNDQVLFIDQGNRPLFEDMTDSDMRDNAPRTIFIISMYSDSQPRGMAVTISVKSEKISTLSSENKIISFKEMNPPDNIKDTKSDIIFFQRSVPGHDNKMQFESSSYEGYFLASEKERDLFKLILKKEDELGDRSIMFTVQNED
B6: IL-18 variant G3R, N91M, K53S (ligand)
chain: YFRKLESKLSVIRNLNDQVLFIDQGNRPLFEDMTDSDMRDNAPRTIFIISMYSDSQPRGMAVTISVKSEKISTLSSENKIISFKEMNPPDMIKDTKSDIIFFQRSVPGHDNKMQFESSSYEGYFLASEKERDLFKLILKKEDELGDRSIMFTVQNED
notes: also called G3R/K53S/N91M

What was measured:
[1] = target: T1, IL-18 receptors on HEK-Blue IL-18 …; test: cell-based or functional assay
[2] = target: T2, human IL-18 binding protein (IL-18BP); test: cell-based or functional assay
[3] = target: T2, human IL-18 binding protein (IL-18BP); test: Octet BLI
Protocol: (§1) Octet 96red instrument was used to determine affinities of IL18 proteins to BP or receptors. 5-10 ug/ml analyte proteins were used for loading on Sartorius tips (AHC or SA). […] 120-180 s loading, 200 s association and 800 s dissociation were used for kinetics. 3-7 data points were used to calculate affinities.
Select G3/K53-substitution containing IL-18 variants and select G3/K53/N91-substitution containing TL-18 variants were tested for activity in the HEK-blue activity assay and for binding affinity to IL-18BP. As shown in the data of Table 15 and Table 16 below, each variant had similar or better activity than WT IL-18, and retained substantial activity in the presence of IL-18BP.

[4] = target: T3, human IL-18 binding protein; test: cell-based or functional assay
[5] = target: T4, IL-18 receptors on HEK-Blue IL-18 …; test: cell-based or functional assay
[6] = target: T3, human IL-18 binding protein; test: cell-based or functional assay; remark: listed apart in the source
[7] = target: T4, IL-18 receptors on HEK-Blue IL-18 …; test: cell-based or functional assay; remark: listed apart in the source
IL-18 receptor alpha = target: T5, IL-18 receptor alpha; test: Octet BLI
Protocol: as §1
Additional IL-18 variants were generated and tested based on the results above with G3 variants, E6 variants, K53 variants, and M60 variants. The new variants were first tested for binding to IL-18Rα and IL-18BP by octet, as described above.

[8] = target: T6, IL-18 receptor (IL-18Rα and IL-18Rβ); test: cell-based or functional assay
[9] = target: T1, IL-18 receptors on HEK-Blue IL-18 …; test: cell-based or functional assay; remark: listed apart in the source
[10] = target: T2, human IL-18 binding protein (IL-18BP); test: cell-based or functional assay; remark: listed apart in the source

Binder	HEK-Blue Ec50 (pM), -IL-18BP [1] [pM]	HEK-Blue Ec50 (pM), +IL-18BP (50 nM) [2] [pM]	Kd [3] [nM]	koff [3] [s⁻¹]	kon [3] [M⁻¹ s⁻¹]	HEK-blue EC50 (pM) + 1000 nM BP [4] [pM]	HEK-blue EC50 (pM) - BP [5] [pM]	HEK-blue EC50 (pM) + 300 nM BP [6] [pM]	HEK-blue EC50 (pM) - BP [7] [pM]	Kd (IL-18 receptor alpha) [nM]	EC50 pM, IFN gamma expression in PBMCs [8] [pM]	HEK-Blue Ec50 (pM), -IL-18BP [9] [pM]	HEK-Blue Ec50 (pM), +IL-18BP (50 nM) [10] [pM]
B1	1.69	4.45	16.2	0.00398	245000	–	–	–	–	–	–	–	–
B2	–	–	–	–	–	4.1	5.53	4.99	4.26	5050	–	–	–
B3	–	–	–	–	–	1.31	1.88	1.01	0.843	2260	–	–	–
B4	–	–	–	–	–	0.028	0.031	0.033	0.026	82	–	–	–
B5	2.06	4.43	12	0.00338	283000	–	–	–	–	–	–	–	–
B6	–	–	3.3	0.000735	223000	–	–	–	–	–	73.9	0.12	2.16
